Laboratory results as given in patent publication US8242083B2, “Kinase substrates” (PerkinElmer Health Sciences, Inc., priority 2008, dated 2012).

Columns and labels:
Format in all cases: biochemical
SRM = SRM (Homo sapiens, UniProt Q9H3Y6); assay: TR-FRET kinase assay, SRM; details: Kinase Concentration 0.5 nM; 50 nM ULight-labeled substrate, 200 micromolar ATP, 2 hours
Protocol: (§1) TR-FRET kinase assays are performed under standardized conditions: various individual kinases are incubated with 50 nM of kinase substrate BRB1 labeled with the TR-FRET acceptor dye ULight (PerkinElmer) and 200 micromolar ATP in 10 μL of kinase assay buffer (50 mM HEPES pH7.5, 10 mM MgCl2, 3 mM MnCl2, 1 mM EGTA, 2 mM DTT and 0.01% Tween-20) for 2 hours at room temperature. Reactions are stopped with EDTA, and anti-phospho-tyrosine antibodies (clone PT66) labeled with the TR-FRET europium chelate donor dye are added to a final concentration of 2 nM in a final volume of 20 μL. The TR-FRET signal emitted at 665 nm is read one hour after the addition of antibodies using a TR-FRET plate reader such as the Envision® Multilabel Plate reader (PerkinElmer). The emitted signal at 665 nm is proportional to the extent of peptide phosphorylation, Control reactions indicative of background are performed excluding ATP from the reaction.
(§2) Assay conditions are identical to those used described for FIG. 1.

FGFR1 = FGFR1 (Homo sapiens, UniProt P11362); assay: TR-FRET kinase assay, FGFR1; details: Kinase Concentration 0.5 nM; 50 nM ULight-labeled substrate, 200 micromolar ATP, 2 hours
Protocol: as §1, §2

DGFR [T790M] = DGFR [T790M] (Homo sapiens, UniProt P00533, T790M); assay: TR-FRET kinase assay, DGFR [T790M]; details: Kinase Concentration 0.5 nM; 50 nM ULight-labeled substrate, 200 micromolar ATP, 2 hours
Protocol: as §1, §2

FGFR4 = FGFR4 (Homo sapiens, UniProt P22455); assay: TR-FRET kinase assay, FGFR4; details: Kinase Concentration 3 nM; 50 nM ULight-labeled substrate, 200 micromolar ATP, 2 hours
Protocol: as §1, §2

ABL [T315I] (ABL1) = ABL [T315I] (ABL1) (Homo sapiens, UniProt P00519, T315I); assay: TR-FRET kinase assay, ABL [T315I]; details: Kinase Concentration 0.5 nM; 50 nM ULight-labeled substrate, 200 micromolar ATP, 2 hours
Protocol: as §1, §2

SYK = SYK (Homo sapiens, UniProt P43405); assay: TR-FRET kinase assay, SYK; details: Kinase Concentration 0.5 nM; 50 nM ULight-labeled substrate, 200 micromolar ATP, 2 hours
Protocol: as §1, §2

SRC = SRC (Homo sapiens, UniProt P12931); assay: TR-FRET kinase assay, SRC; details: Kinase Concentration 0.5 nM; 50 nM ULight-labeled substrate, 200 micromolar ATP, 2 hours
Protocol: as §1, §2

FLT3 = FLT3 (Homo sapiens, UniProt P36888); assay: TR-FRET kinase assay, FLT3; details: Kinase Concentration 0.1 nM; 50 nM ULight-labeled substrate, 200 micromolar ATP, 2 hours
Protocol: as §1, §2

FER = FER (Homo sapiens, UniProt P16591); assay: TR-FRET kinase assay, FER; details: Kinase Concentration 0.25 nM; 50 nM ULight-labeled substrate, 200 micromolar ATP, 2 hours
Protocol: as §1, §2

BTK = BTK (Homo sapiens, UniProt Q06187); assay: TR-FRET kinase assay, BTK; details: Kinase Concentration 0.25 nM; 50 nM ULight-labeled substrate, 200 micromolar ATP, 2 hours
Protocol: as §1, §2

TYK2 = TYK2 (Homo sapiens, UniProt P29597); assay: TR-FRET kinase assay, TYK2; details: Kinase Concentration 4 nM; 50 nM ULight-labeled substrate, 200 micromolar ATP, 2 hours
Protocol: as §1, §2

ARG = ARG (Homo sapiens, UniProt P42684); assay: TR-FRET kinase assay, ARG; details: Kinase Concentration 0.5 nM; 50 nM ULight-labeled substrate, 200 micromolar ATP, 2 hours
Protocol: as §1, §2

HER2 = HER2 (Homo sapiens, UniProt P04626); assay: TR-FRET kinase assay, HER2; details: Kinase Concentration 10 nM; 50 nM ULight-labeled substrate, 200 micromolar ATP, 2 hours
Protocol: as §1, §2

83 tyrosine kinases = assay: Panel of 83 TR-FRET tyrosine kinase assays; details: 83 tyrosine kinases tested; conditions of Example 1
Protocol: as §1, §2
The BRB2 peptide is tested with 83 tyrosine kinases in assay conditions identical to those used for BRB1 in Example 1. Data obtained with BRB2 indicate that the peptide is phosphorylated by 65 kinases out of 83 (78%), with signal to noise ratio of >3.

TRKC (NTRK3) = TRKC (NTRK3) (Homo sapiens, UniProt Q16288); assay: TR-FRET kinase assay, TRKC (NTRK3); details: Kinase Concentration 0.5 nM; 50 nM ULight-labeled substrate, 200 micromolar ATP, 2 hours
Protocol: as §1, §2

FRK = FRK (Homo sapiens, UniProt P42685); assay: TR-FRET kinase assay, FRK; details: Kinase Concentration 0.5 nM; 50 nM ULight-labeled substrate, 200 micromolar ATP, 2 hours
Protocol: as §1, §2

FGFR3 = FGFR3 (Homo sapiens, UniProt P22607); assay: TR-FRET kinase assay, FGFR3; details: Kinase Concentration 0.25 nM; 50 nM ULight-labeled substrate, 200 micromolar ATP, 2 hours
Protocol: as §1, §2

TEC = target: T1, TEC (Homo sapiens, UniProt P42680); assay: TR-FRET kinase assay, TEC; details: Kinase Concentration 0.5 nM; 50 nM ULight-labeled substrate, 200 micromolar ATP, 2 hours
T1 sequence (P42680 1-631): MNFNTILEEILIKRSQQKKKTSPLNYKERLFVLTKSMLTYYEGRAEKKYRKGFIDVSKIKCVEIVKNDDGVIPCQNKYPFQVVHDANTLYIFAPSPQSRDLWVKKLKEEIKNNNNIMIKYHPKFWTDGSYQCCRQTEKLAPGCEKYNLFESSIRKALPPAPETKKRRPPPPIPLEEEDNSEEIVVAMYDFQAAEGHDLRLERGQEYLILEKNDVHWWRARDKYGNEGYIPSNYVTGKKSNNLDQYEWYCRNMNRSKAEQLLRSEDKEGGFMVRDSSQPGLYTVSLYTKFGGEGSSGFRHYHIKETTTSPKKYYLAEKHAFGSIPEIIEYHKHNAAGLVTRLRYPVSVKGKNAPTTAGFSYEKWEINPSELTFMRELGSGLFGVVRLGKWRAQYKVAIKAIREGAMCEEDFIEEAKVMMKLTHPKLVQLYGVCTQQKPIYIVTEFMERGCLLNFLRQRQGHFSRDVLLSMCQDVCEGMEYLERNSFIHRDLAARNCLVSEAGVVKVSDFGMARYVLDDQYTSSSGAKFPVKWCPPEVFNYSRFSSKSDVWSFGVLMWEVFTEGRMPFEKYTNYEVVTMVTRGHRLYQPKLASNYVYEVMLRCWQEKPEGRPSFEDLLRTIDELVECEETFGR
Protocol: as §1, §2

PYK2 = PYK2 (Homo sapiens, UniProt Q14289); assay: TR-FRET kinase assay, PYK2; details: Kinase Concentration 0.25 nM; 50 nM ULight-labeled substrate, 200 micromolar ATP, 2 hours
Protocol: as §1, §2

PYK2, sequence (Q14289 whole entry, species assumed): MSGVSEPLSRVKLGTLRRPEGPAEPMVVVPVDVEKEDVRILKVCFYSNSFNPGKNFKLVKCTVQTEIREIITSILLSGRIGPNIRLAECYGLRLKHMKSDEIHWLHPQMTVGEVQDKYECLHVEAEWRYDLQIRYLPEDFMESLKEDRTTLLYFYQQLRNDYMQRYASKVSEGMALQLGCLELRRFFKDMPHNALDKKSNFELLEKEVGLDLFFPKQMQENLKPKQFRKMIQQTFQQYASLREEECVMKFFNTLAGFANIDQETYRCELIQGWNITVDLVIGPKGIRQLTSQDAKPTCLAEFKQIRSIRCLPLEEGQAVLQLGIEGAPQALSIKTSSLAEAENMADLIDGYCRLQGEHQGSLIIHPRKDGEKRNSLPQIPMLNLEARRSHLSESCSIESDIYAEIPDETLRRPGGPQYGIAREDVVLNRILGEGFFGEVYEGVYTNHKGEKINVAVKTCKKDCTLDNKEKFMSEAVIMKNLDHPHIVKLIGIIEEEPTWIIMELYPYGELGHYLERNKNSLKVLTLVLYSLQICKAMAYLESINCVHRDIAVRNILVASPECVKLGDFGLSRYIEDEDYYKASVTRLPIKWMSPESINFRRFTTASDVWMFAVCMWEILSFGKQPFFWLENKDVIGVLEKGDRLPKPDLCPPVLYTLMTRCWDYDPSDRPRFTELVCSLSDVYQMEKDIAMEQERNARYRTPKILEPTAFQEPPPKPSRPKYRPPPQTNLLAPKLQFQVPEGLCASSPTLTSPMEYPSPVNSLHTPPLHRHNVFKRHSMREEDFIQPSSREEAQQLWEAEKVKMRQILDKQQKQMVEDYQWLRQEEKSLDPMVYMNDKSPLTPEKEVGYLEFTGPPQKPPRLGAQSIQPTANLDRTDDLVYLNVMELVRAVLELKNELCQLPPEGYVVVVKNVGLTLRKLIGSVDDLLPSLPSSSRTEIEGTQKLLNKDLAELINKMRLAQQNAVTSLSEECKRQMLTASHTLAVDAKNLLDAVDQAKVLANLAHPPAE
FER, sequence (P16591 whole entry, species assumed): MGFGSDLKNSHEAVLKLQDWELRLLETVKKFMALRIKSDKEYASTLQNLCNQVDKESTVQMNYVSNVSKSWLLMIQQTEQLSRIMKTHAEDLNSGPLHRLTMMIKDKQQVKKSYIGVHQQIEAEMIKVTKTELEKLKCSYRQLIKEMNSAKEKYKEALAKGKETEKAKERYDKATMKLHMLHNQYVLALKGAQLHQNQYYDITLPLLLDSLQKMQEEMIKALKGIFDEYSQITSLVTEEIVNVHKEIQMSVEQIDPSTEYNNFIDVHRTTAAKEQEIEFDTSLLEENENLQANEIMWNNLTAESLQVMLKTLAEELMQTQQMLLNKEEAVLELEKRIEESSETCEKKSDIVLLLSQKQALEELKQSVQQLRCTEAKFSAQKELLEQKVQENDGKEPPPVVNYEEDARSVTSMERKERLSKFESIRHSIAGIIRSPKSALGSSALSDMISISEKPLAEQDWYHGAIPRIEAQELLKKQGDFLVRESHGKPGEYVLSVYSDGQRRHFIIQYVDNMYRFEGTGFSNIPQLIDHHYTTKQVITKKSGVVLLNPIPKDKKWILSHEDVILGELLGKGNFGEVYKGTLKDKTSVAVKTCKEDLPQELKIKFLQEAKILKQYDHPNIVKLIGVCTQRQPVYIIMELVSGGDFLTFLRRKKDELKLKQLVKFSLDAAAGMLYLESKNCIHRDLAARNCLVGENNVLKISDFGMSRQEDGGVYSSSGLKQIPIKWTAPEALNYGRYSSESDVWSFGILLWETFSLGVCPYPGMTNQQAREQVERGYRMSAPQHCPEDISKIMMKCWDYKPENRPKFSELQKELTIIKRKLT
FGFR1, sequence (P11362 22-822, species assumed): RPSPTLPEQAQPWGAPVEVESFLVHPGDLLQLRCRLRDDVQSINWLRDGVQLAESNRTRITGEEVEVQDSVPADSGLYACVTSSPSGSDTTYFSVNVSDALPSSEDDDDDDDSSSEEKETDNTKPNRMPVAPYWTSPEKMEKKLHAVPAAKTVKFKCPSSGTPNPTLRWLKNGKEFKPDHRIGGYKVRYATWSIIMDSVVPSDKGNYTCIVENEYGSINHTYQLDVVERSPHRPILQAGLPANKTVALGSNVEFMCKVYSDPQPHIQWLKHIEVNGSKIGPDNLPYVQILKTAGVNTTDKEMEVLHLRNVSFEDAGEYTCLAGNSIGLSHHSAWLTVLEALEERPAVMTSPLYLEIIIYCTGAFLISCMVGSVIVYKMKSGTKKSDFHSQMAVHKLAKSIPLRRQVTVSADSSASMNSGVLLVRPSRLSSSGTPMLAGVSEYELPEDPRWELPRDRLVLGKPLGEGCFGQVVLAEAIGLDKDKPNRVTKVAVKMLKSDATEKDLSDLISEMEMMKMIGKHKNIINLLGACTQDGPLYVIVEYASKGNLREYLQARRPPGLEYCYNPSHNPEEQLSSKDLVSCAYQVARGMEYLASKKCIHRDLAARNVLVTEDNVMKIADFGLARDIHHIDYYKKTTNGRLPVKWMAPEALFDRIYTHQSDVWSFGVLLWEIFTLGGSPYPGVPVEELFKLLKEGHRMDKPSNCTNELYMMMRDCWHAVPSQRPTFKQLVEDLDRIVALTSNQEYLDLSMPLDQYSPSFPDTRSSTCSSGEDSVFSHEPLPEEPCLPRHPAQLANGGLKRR
FGFR3, sequence (P22607 23-806, species assumed): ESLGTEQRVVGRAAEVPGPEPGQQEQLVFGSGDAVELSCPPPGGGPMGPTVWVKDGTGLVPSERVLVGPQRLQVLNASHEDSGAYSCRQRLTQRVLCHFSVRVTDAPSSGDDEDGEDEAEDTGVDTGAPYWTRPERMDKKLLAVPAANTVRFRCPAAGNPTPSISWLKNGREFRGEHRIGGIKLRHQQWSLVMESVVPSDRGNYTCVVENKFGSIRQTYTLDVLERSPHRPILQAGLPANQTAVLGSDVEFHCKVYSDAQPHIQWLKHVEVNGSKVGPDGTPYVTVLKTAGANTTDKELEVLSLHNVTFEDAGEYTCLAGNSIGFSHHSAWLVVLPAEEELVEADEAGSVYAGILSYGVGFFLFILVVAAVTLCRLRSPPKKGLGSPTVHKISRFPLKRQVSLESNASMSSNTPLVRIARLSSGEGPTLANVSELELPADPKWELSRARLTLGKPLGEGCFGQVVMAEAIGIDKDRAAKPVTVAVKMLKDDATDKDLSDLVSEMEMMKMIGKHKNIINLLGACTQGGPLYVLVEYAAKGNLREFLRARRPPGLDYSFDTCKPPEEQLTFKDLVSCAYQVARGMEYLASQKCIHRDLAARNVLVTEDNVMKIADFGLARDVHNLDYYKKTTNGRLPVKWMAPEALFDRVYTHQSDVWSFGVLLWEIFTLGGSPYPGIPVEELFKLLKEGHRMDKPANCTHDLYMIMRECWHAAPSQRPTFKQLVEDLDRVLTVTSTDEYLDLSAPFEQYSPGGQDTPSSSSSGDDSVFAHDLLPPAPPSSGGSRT
SRM, sequence (Q9H3Y6 whole entry): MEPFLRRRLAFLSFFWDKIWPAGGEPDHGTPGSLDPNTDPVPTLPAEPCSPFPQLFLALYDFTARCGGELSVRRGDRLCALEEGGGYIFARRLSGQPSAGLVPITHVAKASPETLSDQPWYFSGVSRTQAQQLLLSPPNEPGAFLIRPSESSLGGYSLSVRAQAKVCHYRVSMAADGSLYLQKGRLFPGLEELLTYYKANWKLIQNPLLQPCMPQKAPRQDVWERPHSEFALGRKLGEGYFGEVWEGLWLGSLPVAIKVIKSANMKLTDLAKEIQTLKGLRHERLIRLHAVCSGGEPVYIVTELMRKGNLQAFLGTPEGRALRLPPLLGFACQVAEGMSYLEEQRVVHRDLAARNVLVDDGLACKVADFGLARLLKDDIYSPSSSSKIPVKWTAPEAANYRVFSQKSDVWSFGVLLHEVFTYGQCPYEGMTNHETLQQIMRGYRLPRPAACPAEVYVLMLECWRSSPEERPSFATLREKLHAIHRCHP
ARG, sequence (P42684 whole entry): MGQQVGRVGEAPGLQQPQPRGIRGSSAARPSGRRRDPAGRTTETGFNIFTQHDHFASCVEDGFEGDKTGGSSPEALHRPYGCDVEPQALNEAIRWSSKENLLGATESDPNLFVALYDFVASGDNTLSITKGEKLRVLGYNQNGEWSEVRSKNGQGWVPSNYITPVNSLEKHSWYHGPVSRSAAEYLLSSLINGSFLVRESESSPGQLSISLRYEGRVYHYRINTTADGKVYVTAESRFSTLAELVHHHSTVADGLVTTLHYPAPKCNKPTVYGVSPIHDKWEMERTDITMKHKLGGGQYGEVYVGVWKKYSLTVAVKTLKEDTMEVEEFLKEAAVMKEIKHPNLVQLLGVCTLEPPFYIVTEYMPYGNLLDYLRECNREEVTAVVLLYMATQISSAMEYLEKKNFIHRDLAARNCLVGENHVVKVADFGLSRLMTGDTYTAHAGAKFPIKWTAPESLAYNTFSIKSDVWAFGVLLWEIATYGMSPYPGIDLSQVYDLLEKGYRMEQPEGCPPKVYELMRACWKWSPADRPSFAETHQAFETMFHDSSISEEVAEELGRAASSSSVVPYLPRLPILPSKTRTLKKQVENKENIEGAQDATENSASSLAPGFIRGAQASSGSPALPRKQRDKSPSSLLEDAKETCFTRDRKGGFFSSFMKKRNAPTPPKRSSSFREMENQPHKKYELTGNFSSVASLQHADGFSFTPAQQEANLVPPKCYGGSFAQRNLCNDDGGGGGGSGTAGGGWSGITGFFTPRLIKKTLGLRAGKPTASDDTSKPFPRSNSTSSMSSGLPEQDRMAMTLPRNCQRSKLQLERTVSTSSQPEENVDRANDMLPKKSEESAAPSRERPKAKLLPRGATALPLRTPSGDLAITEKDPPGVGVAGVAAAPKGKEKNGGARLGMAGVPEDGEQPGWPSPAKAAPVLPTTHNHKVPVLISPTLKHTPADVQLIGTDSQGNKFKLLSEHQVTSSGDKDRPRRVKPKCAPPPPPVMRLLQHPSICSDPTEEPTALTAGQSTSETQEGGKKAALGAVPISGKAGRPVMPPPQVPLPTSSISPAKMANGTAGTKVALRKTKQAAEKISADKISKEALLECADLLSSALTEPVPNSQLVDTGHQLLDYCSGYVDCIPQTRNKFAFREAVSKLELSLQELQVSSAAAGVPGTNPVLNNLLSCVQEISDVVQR

Sequence: C AYE AYE AYE K EYA EYA EYA K AYA EYE R (CAYEAYEAYEKEYAEYAEYAKAYAEYER; tyrosine kinase substrate peptide) [BRB1]
- Signal to Noise ratio with BRB1 Peptide (SRM): 32.5
- Signal to Noise ratio with BRB1 Peptide (FGFR1): 26.4
- Signal to Noise ratio with BRB1 Peptide (DGFR [T790M]): 3.3
- Signal to Noise ratio with BRB1 Peptide (FGFR4): 17.7
- Signal to Noise ratio with BRB1 Peptide (ABL [T315I] (ABL1)): 4.8
- Signal to Noise ratio with BRB1 Peptide (SYK): 24.6
- Signal to Noise ratio with BRB1 Peptide (SRC): 31.7
- Signal to Noise ratio with BRB1 Peptide (FLT3): 25.9
- Signal to Noise ratio with BRB1 Peptide (FER): 31.0
- Signal to Noise ratio with BRB1 Peptide (BTK): 6.8
- Signal to Noise ratio with BRB1 Peptide (TYK2): 7.3
- Signal to Noise ratio with BRB1 Peptide (ARG): 10.6
- Signal to Noise ratio with BRB1 Peptide (HER2): 1.4
- Number of kinases out of 83 that phosphorylated the peptide with signal to noise ratio of >3 (83 tyrosine kinases): 72
- Percentage of 83 kinases that phosphorylated the peptide with signal to noise ratio of >3 (83 tyrosine kinases): 87%
- Signal to Noise ratio with BRB1 Peptide (TRKC (NTRK3)): 6.4
- Signal to Noise ratio with BRB1 Peptide (FRK): 9.7
- Signal to Noise ratio with BRB1 Peptide (FGFR3): 24.4
- Signal to Noise ratio with BRB1 Peptide (TEC): 18.6
- Signal to Noise ratio with BRB1 Peptide (PYK2): 2.9
